Experimental data published in the supplement of paper PMC9170038.

These sequences were tested on MS2 coat protein (assay: apparent KD of MS2 coat protein, switch OFF state (with FMN for OFF switches, without FMN for ON switches); designed switch direction (-1 OFF switch, 1 ON switch): -1; higher = weaker reporter binding). Conditions: FMN input: 0 or 200 uM; Eterna round: R93 (includes R88 designs).
Method in brief: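 Designed RNA switches were transcribed on-chip from Illumina sequencing clusters and titrated with SNAP-549-labelled MS2 coat protein in twofold steps from 0.7 or 1.5 nM up to 3 µM. Each step lasted 0.8–1.5 h at first and 10–20 min by the end, in 100 mM Tris-HCl pH 7.5, 80 mM KCl and 4 mM MgCl2, without or with constant ligand. Apparent KD is the median, for each design, of fits to normalised cluster binding curves.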

Sequence | apparent KD of MS2 coat protein [µM]
AACAGUACAGGAUAUACAUGAGGAUCACCCAUGUGAGACUUAAGUGGCGUACCACAAAGUAGAAGGGUACUGGA [JL Maslow Revisted mod 8] | 0.386
AUAAGUCGAGGAUAUACGAAAUGCUAGCGAAAGCUAGCAUAACAUGAGGAUCACCCAUGUAGAAGGCGACAAUA [Tetraloop hairpin BlockHead... 61% 3] | 0.0206
CAGUACUGAGGAUAUACAUGAGGAUCACCCAUGUGUUCCAGCUAGGAAACUAGCACAUGUAGAAGGCAGUACUG [Ex3: 826] | 0.0168
AAGAAGUCAGGAUAUGCCAGAGAUCAAGAAAGUGACGAAUAGCAGAAGGGACAUGAGGAUCACCCAUGUAAAGA [Opal 9] | 0.0359
AGGAAACAUGAGGAUCACCCAUGUGAGGAUAUAGGAAAGAAAAGAAAAGAAAGAAGAAUUAGAAGGCACAAGAA [Djet] | 0.0149
AAGAACGUAGGAUAUACAAAAUAAAAGAAAAGAAAGAAAGAACAUGAGGAUCACCCAUGUAGAAGGACGAAGAA [Sekhemrekhutawy Khabaw] | 0.0218
UAAAAGCGAGGAUAUACAUGAGGAUCACCCAUGUGAAAGAAAAAUAAAAAAAAAAAAAGUAGAAGGCGCUAAAA [Ex 3 #2] | 0.0657
CGUUUGUUAGGAUAUAGCCACAUUACGAAUAAGUAGUGUGGCUAGAAGGAACAUGAGGAUCACCCAUGUAUGGG [Exclusion 4.3 (AU closing FMN)] | 0.0785
AAAAAGUCAGGAUAUUCGGAAGGGAAAGCGCAAACCCAACCGAAGAAGGGACAUGAGGAUCACCCAUGUAAAAA [Ecls4-III] | 0.0429
AAGAUGUCAGGAUAUGCUUGUCGUCACAAAAGUGAUGACGAGCAGAAGGGACAUGAGGAUCACCCAUGUAAAGA [JL eternac mod 3] | 0.303
AGUCGGCGAGGAUAUACAUGAGGAUCACCCAUGUGAGAGAAUAUAGUGAGUUAGACAAGUAGAAGGCGCUGACA [JL Lego Mod 11] | 0.135
AAAAAUGGAGGAUAUACAUGAGGAUCACCCAUGUGUGACUAUACUAAGCGCUCUUCAGGUAGAAGGCCAAAAAA [Gilly Gone Silly 17 - Jieux - Exclusion 3] | 0.0603
AAUUCACAUGAGGAUCACCCAUGUAAGGAUAUCGAAAAAAAACUAAACAAAAAACAAACGAGAAGGUACAAAAA [Exclusion 1 design 5] | 0.0316
AACAGUACAGGAUAUACAUGAGGAUCACCCAUGUGGGUGUUAAGUGGCGUACCACAAAGUAGAAGGGUACUGGA [JL In the Red CG] | 0.106
UCCUCACAUGAGGAUCACCCAUGUUAGGAUAUGCCCGGCGGGUUCUGACCUGCCUAAAGCAGAAGGAACGUGCG [Cexequge] | 0.0701
AAGACUACAGGAUAUACAUGAGGAUCACCCAUGUAACUGACGGAUAGAUGACGGAGAAGUAGAAGGGUAGUCCA [Ruby 39] | 0.0469
AAAAAGUCAGGAUAUUCGGAUAGGAAAACGAAAACCUAUCCGAAGAAGGGACAUGAGGAUCACCCAUGUAAAAA [Ecls4-II] | 0.0461
AAAAACUGAGGAUAUACUUUGGGAAAAGAAAAGAUGAUGUUACAUGAGGAUCACCCAUGUAGAAGGCAGAAAAA [Mat - Exclusion 2 - Mod - D154] | 0.043
AAGAAUGCAGGAUAUACAUGAGGAUCACCCAUGUAAAAGAAAGAGGGAAAAGAGAAAAGUAGAAGGGCAAAGAA [Cleopatra III] | 0.0376
AGAAAGUGAGGAUAUCGAAGACUGUCGAAAAGACAGUCGAACGAGAAGGCACAUGAGGAUCACCCAUGUGAGGG [Mat - Exaclusion 4 - Eli mod - D67] | 0.0582
AAAAAACAUGAGGAUCACCCAUGUGAGGAUAUCCUGAAUGAAAUAAAAUAUCUCGAAAGGAGAAGGCGCAAAAA [Ex 1 May 33] | 0.0499
AUAGUACAUGAGGAUCACCCAUGUCAGGAUAUUCGAAAUGAAAAAAAAAAAAAGUGAAGGAGAAGGGACUAUAA [EX1 Malc#12] | 0.0201
AAAAAACAUGAGGAUCACCCAUGUCAGGAUAUACGAUAAAAAAAAAAAAAAAAAAAAUGUAGAAGGGACAAAAA [Simple 1] | 0.0608

Sequence | apparent KD of MS2 coat protein [µM]
AAAAAGUCAGGAUAUGUAGCAAAAAGUGAUCCAAAAAAGCUACAGAAGGGACAUGAGGAUCACCCAUGUAAAAA [Ex4: 931] | 0.0982
AAAAAUCGAGGAUAUACAUGAGGAUCACCCAUGUCAAAAAAUGACUACACAAAAGAAAGUAGAAGGCGAUAAAG [Mat - Exclusion 3 - Mayanna mod - D129] | 0.0366
AAAGAUGCAGGAUAUACAUGAGGAUCACCCAUGUUAGACCUGAAAAAGGGAAAAGAAAGUAGAAGGGCAUAAUA [Ex 3 May 31] | 0.0115
AGACAUACAGGAUAUACAUAGGAAAAAAAAAAAAAAAUUCAACAUGAGGAUCACCCAUGUAGAAGGGUAUGUCA [Ex2 Design 172: Random 2] | 0.0699
AAAAAACAUGAGGAUCACCCAUGUCAGGAUAUCCGAAAAAAAAAAAAAAAAAGGCCUUGGAGAAGGGACAUUCC [Chica Displaced 7- Jieux - Exclusion 1] | 0.0575
CCCAUGUCAGGAUAUCAGUAGUAAAAAAAAAAAAUUACUACUGAGAAGGGACAUGAGGAUCACCCAUGUUCAAA [EX4 317: Super Stable 17] | 0.0283
AAAAAGUCAGGAUAUACAUGAGGAUCACCCAUGUGAAAGAACGAUUAACGAAAAGCAAGUAGAAGGGACAAAAA [Ruby 79] | 0.0237
AAACCACAUGAGGAUCACCCAUGUCAGGAUAUGAACGAAAAUAAAUAAAAAUAAAAGUUCAGAAGGGACAAAAA [66%, Wbt, 13] | 0.0772
AAAAAACAUGAGGAUCACCCAUGUCAGGAUAUCCGGAAAAAAAAAAAAAAAAGGCGUUGGAGAAGGGACAUUCC [Chica Displaced 8 - Jieux - Exclusion 1] | 0.0368
AAAAAACAUGAGGAUCACCCAUGUAAGGAUAUCUAAAAUAAAAGAAAAAUAAAGAAAAGGAGAAGGUACAUGGA [JL wbt mod 22] | 0.0156
UAAAGGAUAGGAUAUACAUGAGGAUCACCCAUGUGAAUAAAUAAAAAAAUAAAAUAAAGUAGAAGGAUCAAUAA [LROPPY Exclusion 3 - v04_deltaG=3.9 break up As] | 0.034
AACAGGUCAGGAUAUGUGGAAAAAAUAAAAAAAAUAAAAACACAGAAGGGACAUGAGGAUCACCCAUGUAAACA [May 23] | 0.0604
AGAGAGAGAGGAUAUACAUGAGGAUCACCCAUGUAAAAGAAAGAAAAGGGAAAGAAAAGUAGAAGGCUCAGAGA [Ruby 65] | 0.0535
AAUAAGUCAGGAUAUACUAAAGAAAUGAAAAGGGAUAAAGAACAUGAGGAUCACCCAUGUAGAAGGGACAAUAA [Sakir-Har] | 0.0516
AAAAAGCGAGGAUAUACAUAGCUAAGACAAAUAAGCAAGGGACAUGAGGAUCACCCAUGUAGAAGGCGCAAAAA [Exclusion 2-01... 60% 1] | 0.0973
ACCAAUGGAGGAUAUACAUGAGGAUCACCCAUGUUUAUCCUACAUAGGUGAAAAAUAUGUAGAAGGCCAUAGGA [EX3 238: Super Stable 38] | 0.0108
AAAAAGGAAGGAUAUACGAACAUGUCAAAAGACGUGAAGGGACAUGAGGAUCACCCAUGUAGAAGGUCCAAAAA [JL Half Open 23] | 0.0996
AAGGGACAUGAGGAUCACCCAUGUCAGGAUAUGCAAAUAACAAACAACAAACAACAAAGCAGAAGGGACAAAAA [Mat - Exclusion 1 - Eli mod - D53] | 0.0248
AAGAAGCUAGGAUAUACAUGAAAGAAAGAAAAGAAAAGAAAACAUGAGGAUCACCCAUGUAGAAGGAGCUAGAA [EteRNA is fun!] | 0.0325
AAGUUAUUAGGAUAUACUUGUGCGAUUAAUACGUUGAUAGUACAUGAGGAUCACCCAUGUAGAAGGAAUAAAAA [JR_Exc002_Sub411] | 0.0259
AGUGAGUGAGGAUAUGAGUGAACAACAAAACAAAUAACGACUCAGAAGGCACAUGAGGAUCACCCAUGUACACA [May 68] | 0.0223
AAAAUGUGAGGAUAUCUGGAUAGGAAAAAGAAAACCUAUCCAGAGAAGGCACAUGAGGAUCACCCAUGUAAAAA [JL cataway mod 4] | 0.114
